Experimental data from the RNAGym collection of RNA variant scans (doi:10.1073/pnas.2313332121).

B1: TPR t1 (parent)
chain: GACCAAUCUGCCCUCAGAGCUCGAGAACAUCUUCGGAUGCAGAGGAGGCAGGCUUCGGUGGCGCGAUAGCGCCAACGUCCUCAACCUCCAAUGCAUCCCACCACAUGAUGAUGCCUGAAGAGCCUUGGUUUUUUG

Variants of: B1
Assay: polymerase ribozyme fitness, log enrichment relative to wild type (log ratio); higher = more active; in vitro selection for triplet polymerase activity
Outline: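 To select mutant libraries of each subunit of a heterodimeric triplet polymerase ribozyme, built by PCR and transcribed, each was annealed with a biotinylated primer, partner subunit and triplets, then incubated frozen at −7 °C. Extended constructs were gel-excised, captured on streptavidin beads and amplified by RT-PCR, in one round carried out in triplicate. Illumina sequencing of input and output libraries kept genotypes with ≥10 input reads and ≥1 read per output. Fitness is the base-2 logarithm of genotype enrichment relative to wild-type enrichment, from inverse-variance-weighted replicate averages.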

Variant | polymerase ribozyme fitness (log ratio)
C3A C62G | -2.38
C3G G17U A50U U54A A74G A121C G135U | -4.33
C3A G10A G44U | -3.54
C3A U7G U32C G93C A111C | -1.66
C3G A5C G48U U54C U92G | -4.45
C3U A6U G48A C115U | -2.28
C3G C13A A95C | -4.35
C3G C40G | -1.82
C3U A66U | -1.8
C3G G120C | -0.918
C3G A29U G71A A119G | -2.72
C3U A27C G58C C64A G93U C101A G113A C115G | -7.47
A2U G47U G61U | -4.48
C3G U7A C40A G44A A111U | -5.51
C3A A75G A111G A118G U129C | -1.7
A2U G42C C72A | -3.5
A2U C72U C101G C124A | -2.06
C3G G61U C94A A95C C124A U132C U133C | -3.25
C3A C20U U38A G61A C82A G110A G127A | -6.34
C3G C97G | -5.54
C3G U14A C20A G42U G61U G117A U131G G135C | -3.96

Variant | polymerase ribozyme fitness (log ratio)
C3A C11G | -1.08
C3A C73G | -1.48
C3G C73A C76U A90G G120U G127U | -3.52
A2U C12A G19A U30G C56A U112A C114G | -7.24
A2U G69U C102U G113A U129A | -0.898
C3U A6U G45U C72G C79G C114A | -5.66
C3G C8G A43U C72U A90C | -2.6
A2U C11U | -2.95
A2U C73A U130A U133G | -2.47
C3A C89A | -2.07
A2U C56A G63U U106A C115G | -6.59
C3G A5G U112C | -0.649
A2U U130C | -0.66
A2U G127C | -2.05
C3A A46C C53A C72U | -1.88
A2U G52U | -3.41
C3A C8U U59A U87G | -1.65
C3G A5U G60C A90G | -1.39
A2U C101U | -1.78
C3G U78A | -2.46
C3G C13A A18G G25U G63A A111C A118G | -6.44

Variant | polymerase ribozyme fitness (log ratio)
A2U C11G G48C G120U G128C | -0.718
C3G C12A C114A G128C | -3.31
A2U C3G G58A | -2.99
A2U C4A C13U C123A | 1.02
C3G U7A G63C A95C | -2.41
C3A G57C A90U C114A U132C | -3.92
A2U C15A | -4.12
C3G U7A C12U C62A G117U | -6.14
C3G G63U | -2.85
C3G G63C | -2.64
A2U C11U G69A | -4.07
C3A C20U G65A C101A A105C C114U U131G | -7.29
C3G G47C | -3.72
A2U G71C C101U G127U | -2.85
A2U G19A | -4.15
C3U A26U G48A U130G | -5.25
C3A G69U G71A A75U A103U C124G | -4.96
A2U G60U C82G | -3.31
A2U G19U C70U A121G | -4.27
C3A U7A C123U | 0.267
C3A G39A C104U C115U | -2.58

Variant | polymerase ribozyme fitness (log ratio)
A2U U106A | -1.89
A2U U106G | -4.83
C3G C49U C72U U131A | -4.85
A2U U129A | 0.107
A2U C40A G61U C73A U92A C104U | -5.16
C3A G71C | -3.03
C3G C8A A37U A111G G120A U125C | -3.58
C3A C12U C102A | -1.7
A2U C8G G39C G61C C79U C101A | -4.35
C3A C64G C76U G110C | -6.8
C3A U7A A121G | 1.21
A2U C15A C114U | -6.05
C3A A5C C13G G36A C79U A84U | -1.28
C3A A5U C11G G36U G45U | -1.02
C3A G10U U129C | -1.94
C3A G57A U92C | -5.31
C3G G39U | -2.39
A2U U87G U96G | -3.12
A2U G44U C70U A90U | -5.08
A2U U54A | -2.36
A2U G135U | -1.94
